Results on one molecule are retold here after paper PMC10732415, “Bacteriophage-encoded 24B_1 molecule resembles herpesviral microRNAs and plays a crucial role in the development of both the virus and its host”.

The target of this data set is Hfq (Escherichia coli, UniProt P0A6X3 1-102). The data set can be described thus: EMSA; 1 mM Mg2+; Hfq up to 100 nM. The note with it: protein: recombinant; chain copies: 6; label: 32P; predicted 4-bp helix.
Chain of Hfq (P0A6X3 whole entry): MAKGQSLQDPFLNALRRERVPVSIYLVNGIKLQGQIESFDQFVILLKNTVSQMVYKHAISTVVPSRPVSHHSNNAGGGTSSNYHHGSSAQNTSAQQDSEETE

Take UAACGUUAAGUUGACUCGGG (ssRNA) [mature 24B_1 RNA, 20 nt]: the binding result is “no binding”.
